The text below walks through data of paper PMC8615163.

Assay [1] deals with HIS-tagged integrin αvβ3 (ACRO Biosystems IT3-H52E3) (UniProt P06756). The assay can be described thus: radioligand binding; 125I-labeled NP-011 (0–100 μg/mL) incubated in plates coated with HIS-tagged integrin; 50 mM Tris, 5 mM MgCl2, 100 mM NaCl, 1% BSA, pH 7.4; Kd by nonlinear curve fitting (Prism); done by Gifford Bioscience.
Assay [2] deals with HIS-tagged integrin αvβ5 (ACRO Biosystems IT5-H52W5) (UniProt P06756). The description is as above.
For assay [3] the target is unchanged. The assay is described as follows: radioligand binding; binding affinity assay of MFG-E8 to integrin αVβ5 (Supplementary Figure S2); told with the radioligand binding assays, its own methods not shown.

As to “NP-011 (truncated form of MFG-E8, EGF + C1 domain) (from UniProt Q08431 24-387) (domain or fragment)”, the Kd in assay [1] was determined as 50.4 nM; in assay [2], 2 nM.

B1: Milk fat globule-EGF factor 8 (MFG-E8) (natural protein)
chain: LDICSKNPCHNGGLCEEISQEVRGDVFPSYTCTCLKGYAGNHCETKCVEPLGLENGNIANSQIAASSVRVTFLGLQHWVPELARLNRAGMVNAWTPSSNDDNPWIQVNLLRRMWVTGVVTQGASRLASHEYLKAFKVAYSLNGHEFDFIHDVNKKHKEFVGNWNKNAVHVNLFETPVEAQYVRLYPTSCHTACTLRFELLGCELNGCANPLGLKNNSIPDKQITASSSYKTWGLHLFSWNPSYARLDKQGNFNAWVAGSYGNDQWLQVDLGSSKEVTGIITQGARNFGSVQFVASYKVAYSNDSANWTEYQDPRTGSSKIFPGNWDNHSHKKNLFETPILARYVRILPVAWHNRIALRLELLGC
B1: in assay [3], the Kd is 25.4 nM.
